{"source": "patent US20100204147A1", "about": "“Methods For Delivering Thymosin Beta 4, Analogues, Isoforms and Other Derivatives” (REGENERX BIOPHARMACEUTICALS, INC., priority 2003, published 2010)", "key": {"Aα221-391 sub-fragment": {"target": "T1, Aα221-391 sub-fragment (Homo sapiens, UniProt P02671)", "T1 construct": "(residues Aα221-391 and Aα392-610, respectively); made in house; host or cells: E. coli, pET20b expression vector", "T1 sequence (P02671 240-410)": "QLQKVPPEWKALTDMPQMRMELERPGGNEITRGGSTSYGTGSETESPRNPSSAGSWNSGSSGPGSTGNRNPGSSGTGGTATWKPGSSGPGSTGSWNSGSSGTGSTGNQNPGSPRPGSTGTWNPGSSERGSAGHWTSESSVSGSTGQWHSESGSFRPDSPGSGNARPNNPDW", "assay": "ELISA of incorporation into immobilized Aα221-391 sub-fragment", "format": "biochemical", "protocol": "(§1) The interaction between thymosin β4 and fibrin(ogen) and its fragments in the presence or absence of FXIIIa was studies by ELISA using plastic microliter plates. Wells of microliter plates were coated overnight at […] with fibrinogen and fibrin at 10 μg/mL or with the recombinant fragments of 20 μg/ml, all in 0.1 M NaHCO3 buffer, pH 8.3. Fibrin was made by addition to the wells of a mixture containing 10 μg/mL fibrinogen 1 NIH u/ml thrombin and 400 u/ml aprotinin, followed by overnight incubation at +4° C. The wells were then blocked by incubation with Super Blocker (Pierce) at 37° C. for 1 h. Following washing with TBS containing 0.05% Tween-20 (TBS-Tween), the indicated concentrations of thymosin β4, FXIII, FXIIIa(Thr) and FXIIIa(Ca) were added to the wells and incubated for 2-2.5 h at 37° C. Bound (incorporated) thymosin β4 was detected by the reaction with rabbit anti-thymosin β4 serum and peroxidase-conjugated anti-rabbit IgG. A TMB Microwell Peroxidase Substrase was added to the wells, and the incorporated thymosin β4 was measured spectrophotometrically at 450 nm."}, "[1]": {"target": "T2, αC-domain (residues Aα221-610) (Homo sapiens, UniProt P02671)", "T2 construct": "human fibrinogen αC-domain (residues Aα221-610); made in house; host or cells: E. coli, pET20b expression vector", "T2 sequence (P02671 240-629)": "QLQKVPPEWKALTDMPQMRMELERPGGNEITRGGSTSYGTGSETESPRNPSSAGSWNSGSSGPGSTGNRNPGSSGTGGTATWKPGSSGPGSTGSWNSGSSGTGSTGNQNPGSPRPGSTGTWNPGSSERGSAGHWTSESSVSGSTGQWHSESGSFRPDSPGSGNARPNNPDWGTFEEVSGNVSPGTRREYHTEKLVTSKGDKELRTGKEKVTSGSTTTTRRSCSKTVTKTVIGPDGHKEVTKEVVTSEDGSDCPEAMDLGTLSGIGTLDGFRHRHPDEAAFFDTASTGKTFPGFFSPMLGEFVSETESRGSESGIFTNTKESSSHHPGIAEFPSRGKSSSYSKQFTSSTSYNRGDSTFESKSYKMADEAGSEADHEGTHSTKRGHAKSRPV", "assay": "ELISA and kinetic analysis of incorporation into immobilized αC-domain", "format": "biochemical", "protocol": "as §1\nTo analyze kinetics of the incorporation of thymosin β4 into different fibrin(ogen) fragments, they were immobilized onto the wells of microliter plates (as described above, except that the concentration of all fragments was 20 μg/mL) and incubated with several concentrations of thymosin β4 in the presence of 10 μg/L thrombin-activated factor XIIIa. The incubation mixtures were inhibited every 15 min during 1 hour of incubation by the addition of iodacetamide to final concentration 10 mM. Incorporated thymosin β4 at each time point was detected with rabbit anti-thymosin β4 serum as described above. The initial rates of the reaction of incorporation (V) at different concentrations of thymosin β4 were determined from the slopes of the reaction time course plots and expressed as tangent α=A450/t (min), where A450 represents absorbance at 450 nm in optical units (o.u) which is proportional to the amount of incorporated thymosin β4. […]"}, "[2]": {"settings": "non-activated factor XIII or without it"}}}
{"substance": "thymosin β4", "values": [{"measurement": "non-covalent interaction with Aα221-391 sub-fragment (ELISA)", "setting": "Aα221-391 sub-fragment; [2]", "value": "no significant non-covalent interaction"}, {"measurement": "incorporation into immobilized Aα221-391 (ELISA)", "setting": "Aα221-391 sub-fragment; presence of factor XIIIa", "value": "very low"}, {"measurement": "non-covalent interaction with αC-domain (ELISA)", "setting": "[1]; [2]", "value": "no significant non-covalent interaction"}, {"measurement": "incorporation into immobilized αC-domain (ELISA)", "setting": "[1]; presence of factor XIIIa", "value": "incorporated effectively"}, {"measurement": "Km", "setting": "[1]; thrombin-activated factor XIIIa, Lineweaver-Burk plot, read-out: apparent Michaelis constant (Km) for incorporation into the αC-domain", "value": "17.6 ± 2.5", "unit": "µM"}]}
